Measurements reported in patent US20250376498A1, “FUSION PROTEINS COMPRISING AN IMPROVED GLP-1 RECEPTOR AGONIST AND USES THEREOF” (Guangzhou Innogen Pharmaceutical Group Co., Ltd., priority 2022, published 2025).
Entries after “also recorded” stand apart in the source; their conditions may differ.

B1: YN-011: GLP-1 fusion protein of SEQ ID NO: 7: GLP-1 (A8G, G22E, R36G), linker peptide and IgG2/Fc domain (C222S, A330S, P331S) (protein)
chain: HGEGTFTSDVSSYLEEQAAKEFIAWLVKGGGSSGAPPPSGGGGSERKSCVECPPCPAPPVAGPSVFLFPPKPKDTLMISRTPEVTCVVVDVSHEDPEVQFNWYVDGVEVHNAKTKPREEQFNSTFRVVSVLTVVHQDWLNGKEYKCKVSNKGLPSSIEKTISKTKGQPREPQVYTLPPSREEMTKNQVSLTCLVKGFYPSDIAVEWESNGQPENNYKTTPPMLDSDGSFFLYSKLTVDKSRWQQGNVFSCSVMHEALHNHYTQKSLSLSPG

Tests used:
[1] = tested on: SH-SY5Y neuronal cells; assay: Apoptosis in TNF-α-induced SH-SY5Y cells (cleaved-caspase 3 immunofluorescence); assay type: cell-based; settings: 60 ng/ml TNF-α, 48 hours; YN-011 10, 100, 500 nM; GABA 1, 10, 100 μM; combination 100 μM GABA + 100 nM YN-011
Method: The experimental procedure is as follows: • 1) Digest the SH-SY5Y neuronal cells in a 10 cm culture dish using 0.25% trypsin to prepare a single-cell suspension. Seed the single-cell suspension into a 24-well plate, placing a sterile coverslip in each well. • 2) Place the culture plate in a CO2 incubator and pre-culture overnight at 37° C. with 5% CO2 to allow the cells to adhere. • 3) Using medium containing 5% FBS, treat the cells in each well with 60 ng/ml TNF-α alone or co-treated with 10, 100, or 500 nM YN-011 at 37° C. for 48 hours. […]

[2] = tested on: HMC3 microglial cells; assay: Inflammatory factor expression in HMC3 microglial cells induced by Aβ1-42 oligomers (western blot); assay type: cell-based, human; settings: for expression of TNF-α (protein) / expression of IL-6 (protein): 10 μM Aβ1-42 oligomers, 48 hours, YN-011 100 nM and 500 nM, combination 100 μM GABA and 100 nM YN-011; for expression of TNF-α (protein): GABA 10 µM and 100 μM; for expression of IL-6 (protein): GABA 100 μM; for inflammatory cytokine expression: Aβ1-42 oligomers (figure legends)
Method: Seed HMC3 human microglial cells into a 12-well plate. After overnight incubation at 37° C. with 5% CO2, treat the cells in each well with 10 μM Aβ1-42 oligomers alone or co-treated with 1, 10, or 100 μM GABA for 48 hours. Each drug treatment is performed in three replicate wells. After 48 hours of treatment, wash the cells with PBS and lyse the cells in RIPA buffer supplemented with protease inhibitor and phosphatase inhibitor on ice for 15 minutes. Centrifuge the cell lysate at 14,000 rpm for 30 minutes. Collect the supernatant, mix with 5× loading buffer supplemented with β-mercaptoethanol, and boil at 100° C. for 10 minutes. Separate denatured proteins by SDS-PAGE. Briefly, load 10 μg of protein onto precast mini polyacrylamide gels (SurePAGE, GenScript #M00657) and run at 120 V voltage. Subsequently, transfer the gel onto a PVDF membrane (0.22 μm pore size) at 200 mA for 90 minutes. After […], incubate the membrane at room temperature with primary antibodies diluted in 5% milk solution (TNF-α, Proteintech #60291-Ig; IL-6, Proteintech #21865-1-AP; HSP90, Proteintech #13171-1-AP) overnight at 4° C. After washing, incubate the membrane with corresponding secondary antibodies (Jackson Lab, 1:10000) at room temperature for 1 hour. After washing, visualize the antibody signals on the membrane using an ECL kit (Millipore #WBKLS0500) following the manufacturer's instructions. Calculate the relative protein levels normalized to the endogenous protein HSP90 using ImageJ.
(§1) Please refer to section 8.20 for the experimental procedure, but the drug treatment in this experiment is different from that in section 8.20. In this experiment, the drug treatment is as follows: treat the cells in each well with 10 μM Aβ1-42 oligomers alone or co-treated with 10, 100, or 500 nM YN-011 for 48 hours. Each drug treatment is performed in three replicate wells.
as §1, with “100 μM GABA and/or 100” for “10, 100, or 500”

[3] = tested on: NASH Rhesus monkeys; assay: NASH Rhesus monkeys, body weight, lipids, glucose, food consumption, tolerability; assay type: in vivo
Method: The in vivo pharmacological study of YN-011 was conducted in NASH Rhesus monkeys. The evaluated clinical parameters included liver lipid content assessed by MRI-PDFF %, NAFLD Activity Score (NAS), liver fibrosis stage assessed by liver histology, body weight, body mass index (BMI), blood lipid profile, fructose metabolism, other biochemical parameters, and food consumption.
The selected Rhesus monkeys were 11-23 years old, which corresponds to 30-70 years in humans. All Rhesus monkeys were males, with weights ranging from 13.63 to 22.85 kg. They had abnormal lipid metabolism for more than 2 years, MRI-PDFF % ranging from 7.8% to 11.9%, NAS scores of 3 or higher, and fibrosis scores of 0-1c within 6 months. These animals clinically met the definition of NASH.
Fifteen Rhesus monkeys were divided into 3 groups, with 5 monkeys in each group. They received subcutaneous injections of 0 (solvent control, placebo control group), 0.050, or 0.150 mg/kg of YN-011 once a week for 13 weeks (QW). The 0.150 mg/kg YN-011 group received adaptive dosing (0.1 mg/kg for the first dose, followed by 0.150 mg/kg for the remaining 12 doses).

Row | Molecule | apoptosis in TNF-α-induced neuronal cells (cleaved-caspase 3 positive cells) [1] | expression of TNF-α (protein) [2] | expression of IL-6 (protein) [2] | inflammatory cytokine expression [2] | food consumption [3] | high-density lipoprotein cholesterol (HDL-c) compared to baseline [3] | plasma fasting plasma glucose (FPG) levels, YN-011 vs placebo [3] | reduction of plasma fructosamine (FRA) ([3]; 150 μg/kg, after 12 weeks of treatment) [%] | adverse reactions ([3]; 0.050 or 0.150 mg/kg sc QW, 13 weeks) | body weight and BMI compared to baseline ([3]; Day 7-Day 84) | serum LDL-c, total cholesterol (TC) and total triglycerides (TG) ([3]; various time points during treatment)
1 | NCCCC(=O)O [GABA, γ-aminobutyric acid] | reduces apoptosis; also recorded: reduction of apoptosis | significantly reduce | significantly reduces | reduction of inflammatory cytokine expression | – | – | – | – | – | – | –
2 | B1 | significantly reduces apoptosis; also recorded: reduction of apoptosis | significantly reduce | significantly reduce | reduction of inflammatory cytokine expression | dose-dependent reduction | decreasing trend | no significant differences | 4.3 | No significant adverse reactions | significant decrease | significantly reduced
